T1: FcγRIIb extracellular domain with C-terminal His tag (human, UniProt P31994 43-217)
T1 construct: extracellular domain; also called FcgRIIb; 2b; not shown: His tag at the C terminus
T1 sequence (looked up): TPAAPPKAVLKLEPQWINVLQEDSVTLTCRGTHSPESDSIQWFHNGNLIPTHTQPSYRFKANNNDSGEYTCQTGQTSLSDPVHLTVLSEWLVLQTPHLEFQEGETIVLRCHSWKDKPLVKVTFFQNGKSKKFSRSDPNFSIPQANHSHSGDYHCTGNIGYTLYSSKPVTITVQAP

T2: FcγRIIa R (human FcγRIIa, allotype R, Arg at position 131), extracellular domain with C-terminal His tag (human, UniProt P12318 34-217)
T2 construct: extracellular domain; expressed in FreeStyle293 cells; analyte in Biacore; also called 2aR; FcgRIIa R
T2 sequence (looked up): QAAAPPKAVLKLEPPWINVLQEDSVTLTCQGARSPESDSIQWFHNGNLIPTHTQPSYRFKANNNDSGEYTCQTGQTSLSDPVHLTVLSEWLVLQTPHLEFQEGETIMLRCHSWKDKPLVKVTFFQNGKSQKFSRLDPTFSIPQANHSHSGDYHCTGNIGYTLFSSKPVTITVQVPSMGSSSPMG

B1: GpH7-A5/GpH7-B3 variant Y300_14T/GpL16-k0 (antibody, human IgG1, kappa)
heavy 1: not shown
heavy 2: not shown
light: DIVMTQSPLSLPVTPGEPASISCQASESLVHSNRNTYLHWYLQKPGQSPQLLIYKVSNRFSGVPDRFSGSGSGTDFTLKISRVEAEDVGVYYCSQNTHVPPTFGQGTKVEIERTVAAPSVFIFPPSDEQLKSGTASVVCLLNNFYPREAKVQWKVDNALQSGNSQESVTEQDSKDSTYSLSSTLTLSKADYEKHKVYACEVTHQGLSSPVTKSFNRGEC
notes: position is EU numbering; also called He Ab
B2: GpH7-A5/GpH7-B3 variant P331_06M/GpL16-k0 (antibody, human IgG1, kappa)
heavy 1: not shown
heavy 2: not shown
light: DIVMTQSPLSLPVTPGEPASISCQASESLVHSNRNTYLHWYLQKPGQSPQLLIYKVSNRFSGVPDRFSGSGSGTDFTLKISRVEAEDVGVYYCSQNTHVPPTFGQGTKVEIERTVAAPSVFIFPPSDEQLKSGTASVVCLLNNFYPREAKVQWKVDNALQSGNSQESVTEQDSKDSTYSLSSTLTLSKADYEKHKVYACEVTHQGLSSPVTKSFNRGEC
notes: heterodimerized antibody, mutation in one H chain only; also called He Ab
B3: GpH7-A5/GpH7-B3 variant P331_07I/GpL16-k0 (antibody, human IgG1, kappa)
heavy 1: not shown
heavy 2: not shown
light: DIVMTQSPLSLPVTPGEPASISCQASESLVHSNRNTYLHWYLQKPGQSPQLLIYKVSNRFSGVPDRFSGSGSGTDFTLKISRVEAEDVGVYYCSQNTHVPPTFGQGTKVEIERTVAAPSVFIFPPSDEQLKSGTASVVCLLNNFYPREAKVQWKVDNALQSGNSQESVTEQDSKDSTYSLSSTLTLSKADYEKHKVYACEVTHQGLSSPVTKSFNRGEC
notes: as for B2
B4: GpH7-A5/GpH7-B3 variant P331_08L/GpL16-k0 (antibody, human IgG1, kappa)
heavy 1: not shown
heavy 2: not shown
light: DIVMTQSPLSLPVTPGEPASISCQASESLVHSNRNTYLHWYLQKPGQSPQLLIYKVSNRFSGVPDRFSGSGSGTDFTLKISRVEAEDVGVYYCSQNTHVPPTFGQGTKVEIERTVAAPSVFIFPPSDEQLKSGTASVVCLLNNFYPREAKVQWKVDNALQSGNSQESVTEQDSKDSTYSLSSTLTLSKADYEKHKVYACEVTHQGLSSPVTKSFNRGEC
notes: as for B2
B5: GpH7-A5/GpH7-B3 variant P331_09D/GpL16-k0 (antibody, human IgG1, kappa)
heavy 1: not shown
heavy 2: not shown
light: DIVMTQSPLSLPVTPGEPASISCQASESLVHSNRNTYLHWYLQKPGQSPQLLIYKVSNRFSGVPDRFSGSGSGTDFTLKISRVEAEDVGVYYCSQNTHVPPTFGQGTKVEIERTVAAPSVFIFPPSDEQLKSGTASVVCLLNNFYPREAKVQWKVDNALQSGNSQESVTEQDSKDSTYSLSSTLTLSKADYEKHKVYACEVTHQGLSSPVTKSFNRGEC
notes: as for B2
B6: GpH7-A5/GpH7-B3 variant P331_10E/GpL16-k0 (antibody, human IgG1, kappa)
heavy 1: not shown
heavy 2: not shown
light: DIVMTQSPLSLPVTPGEPASISCQASESLVHSNRNTYLHWYLQKPGQSPQLLIYKVSNRFSGVPDRFSGSGSGTDFTLKISRVEAEDVGVYYCSQNTHVPPTFGQGTKVEIERTVAAPSVFIFPPSDEQLKSGTASVVCLLNNFYPREAKVQWKVDNALQSGNSQESVTEQDSKDSTYSLSSTLTLSKADYEKHKVYACEVTHQGLSSPVTKSFNRGEC
notes: as for B2
B7: GpH7-A5/GpH7-B3 variant P331_13S/GpL16-k0 (antibody, human IgG1, kappa)
heavy 1: not shown
heavy 2: not shown
light: DIVMTQSPLSLPVTPGEPASISCQASESLVHSNRNTYLHWYLQKPGQSPQLLIYKVSNRFSGVPDRFSGSGSGTDFTLKISRVEAEDVGVYYCSQNTHVPPTFGQGTKVEIERTVAAPSVFIFPPSDEQLKSGTASVVCLLNNFYPREAKVQWKVDNALQSGNSQESVTEQDSKDSTYSLSSTLTLSKADYEKHKVYACEVTHQGLSSPVTKSFNRGEC
notes: as for B2
B8: GpH7-A5/GpH7-B3 variant P331_14T/GpL16-k0 (antibody, human IgG1, kappa)
heavy 1: not shown
heavy 2: not shown
light: DIVMTQSPLSLPVTPGEPASISCQASESLVHSNRNTYLHWYLQKPGQSPQLLIYKVSNRFSGVPDRFSGSGSGTDFTLKISRVEAEDVGVYYCSQNTHVPPTFGQGTKVEIERTVAAPSVFIFPPSDEQLKSGTASVVCLLNNFYPREAKVQWKVDNALQSGNSQESVTEQDSKDSTYSLSSTLTLSKADYEKHKVYACEVTHQGLSSPVTKSFNRGEC
notes: as for B2

Molecular target: T1, FcγRIIb extracellular domain with …
Experiment: SPR (Biacore), antibody captured, FcγR as analyte; He Ab binding / GpH7-A5/GpH7-B3/GpL16-k0 binding x 100

Binder	He/Con_2b (IIb binding)
B1	55.6 relative, control = 100

Molecular target: T3, FcγRIIIa extracellular domain with C-terminal His tag (human, UniProt P08637 17-208)
T3 construct: extracellular domain; also called FcgRIIIa; 3a; not shown: His tag at the C terminus
Experiment: as above

T3 sequence (P08637 17-208): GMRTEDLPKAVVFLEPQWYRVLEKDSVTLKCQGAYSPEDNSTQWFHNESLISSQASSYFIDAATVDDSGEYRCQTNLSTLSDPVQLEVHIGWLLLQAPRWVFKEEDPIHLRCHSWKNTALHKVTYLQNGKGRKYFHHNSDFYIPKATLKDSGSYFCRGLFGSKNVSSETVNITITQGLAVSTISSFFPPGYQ

Binder	He/Con_3a (IIIa binding)
B1	85.4 relative, control = 100

Molecular target: T2, FcγRIIa R (human FcγRIIa, allotype R, …)
Experiment: SPR (Biacore), relative binding vs GpH7-A5/GpH7-B3/GpL16-k0
Experimental: Analysis of interaction between objective antibody and the FcγR was carried out using Biacore T100 (GE Healthcare). HBS-EP+ (GE Healthcare) was used as the running buffer, and the measurement temperature was set to 25° C. Chips produced by immobilizing the antigen peptide by the amine coupling method to a Series S Sencor Chip CM5 (GE Healthcare), or alternatively, chips produced by allowing preliminarily biotinylated antigen peptides to interact with and immobilize onto a Series S Sensor Chip SA (certified) (GE Healthcare) were used. Antibodies of interest were captured onto an antigen peptide-immobilized chip, and allowed to interact to each FcγR diluted with running buffer. To regenerate and repeatedly use the chip, the antibodies captured on the chip were washed off by reacting 10 mM glycine-HCl, pH 1.5.
The FcγR-binding activity of each antibody was assessed primarily using as an indicator the FcγR-binding activity and dissociation constant for FcγR.

Binder	He/Con_2aR
B2	106 relative, control = 100
B3	110 relative, control = 100
B4	102 relative, control = 100
B5	102 relative, control = 100
B6	113 relative, control = 100
B7	105 relative, control = 100
B8	104 relative, control = 100

Molecular target: T3, FcγRIIIa extracellular domain with …
Experiment: SPR (Biacore); ratio of He/Con_3a (FcγRIIIa) to He/Con_2b (FcγRIIb)
In short: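 Biacore measurement, 25 °C: antigen peptide fixed to CM5 (amine coupling) or SA (biotin) chip; antibody captured; FcγR as analyte in HBS-EP+.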

Binder	He_3a/2b (IIIa/IIb) [ratio]
B1	1.53
